# Data from patent US10005846B2, “Anti-transglutaminase 2 antibodies” (MEDICAL RESEARCH COUNCIL TECHNOLOGY, priority 2012, dated 2018).
# Residue numbers refer to the chain shown, from its start.
# T1: human TG2 (Homo sapiens, UniProt P21980)
# T1 sequence (P21980 1-687): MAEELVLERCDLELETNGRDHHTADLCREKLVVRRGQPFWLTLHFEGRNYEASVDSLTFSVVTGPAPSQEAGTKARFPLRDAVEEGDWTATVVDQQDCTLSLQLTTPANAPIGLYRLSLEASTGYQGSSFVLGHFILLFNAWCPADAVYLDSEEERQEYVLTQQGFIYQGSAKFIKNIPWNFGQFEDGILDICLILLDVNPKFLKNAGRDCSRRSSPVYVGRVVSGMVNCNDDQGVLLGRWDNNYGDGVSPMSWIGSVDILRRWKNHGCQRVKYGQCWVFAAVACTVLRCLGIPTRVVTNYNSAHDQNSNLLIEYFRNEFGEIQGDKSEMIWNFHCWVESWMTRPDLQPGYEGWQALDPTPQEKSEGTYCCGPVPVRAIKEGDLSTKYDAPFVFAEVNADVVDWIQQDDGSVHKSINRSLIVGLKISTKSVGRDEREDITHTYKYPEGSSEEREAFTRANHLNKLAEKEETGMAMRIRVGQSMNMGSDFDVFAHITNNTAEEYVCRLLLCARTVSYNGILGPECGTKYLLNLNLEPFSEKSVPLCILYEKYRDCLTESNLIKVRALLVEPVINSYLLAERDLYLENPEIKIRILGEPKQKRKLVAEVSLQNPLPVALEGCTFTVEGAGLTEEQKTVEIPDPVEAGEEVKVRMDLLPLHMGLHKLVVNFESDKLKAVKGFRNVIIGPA
# B1: hBB001BB: humanised BB7 antibody (heavy chain hBB001HB, light chain hBB001KB by name) (antibody, V domains shown)
# VH: EVQLLESGGGLVQPGGSLRLSCAASGIIFSSSAMSWVRQAPGKGLEWVATISSGGRSTYYPDSVKGRFTVSRDSSKNTLYLQMNSLRAEDTAVYYCAKLISPYWGQGTLVTVSS
# VL: DIKMTQSPSSLSASVGDRVTITCKASQDINSYLTWFQQKPGKAPKTLIYLTNRLMDGVPSRFSGSGSGQEFLLTISSLQPEDFATYYCLQYVDFPYTFGQGTKVEIK
# B2: cDC001: chimeric DC1 antibody: murine variable regions, human IgG1 and human kappa (antibody, V domains shown)
# VH: EVQLVESGGGLVKPGGSLKLSCAASGFTLSTHAMSWVRQTPEKRLEWVATISSGGRSTYYPDSVKGRFTISRDNVKNTLYLQLSSLRSEDTAVYFCARLISTYWGQGTTLTVSS
# VL: DITMTQSPSSIYASLGERVTITCKASQDINSYLTWFQQKPGKSPKILIYLVNRLVDGVPSRFSGSGSGQDYALTISSLEYEDMGIYYCLQYDDFPYTFGGGTKLEIK
# B3: hAB005: humanised AB1 antibody; heavy chain version RHA with light chain version RKJ (antibody, V domains shown)
# VH: B1 VH with I27F, I28T, A49S, S53V, R56G, S57K, V70I, S74N, P102L
# VL: B1 VL with K3Q, T46S, L50R, M55F, Q69T, E70D, L72F, V92D
# B4: hAB004: humanised AB1 antibody; heavy chain version RHA with light chain version RKE (antibody, V domains shown)
# VH: B1 VH with I27F, I28T, A49S, S53V, R56G, S57K, V70I, S74N, P102L
# VL: EIVLTQSPSSLSASVGDRVTITCKASQDINSYLTWYQQKPGKAPKLLIYRTNRLFDGVPSRFSGSGSGTDFFFTISSLQPEDFGTYYCLQYDDFPYTFGGGTKLEIK
# Biological target: T1, human TG2
# Experiment: Fluorescence-based transglutaminase assay (dansylated lysine into N,N-dimethylated casein), human TG2
# Assay type: biochemical
# Parameters: purchased Zedira GmbH T002
# Conditions: 1 nM human TG2
# Experimental: Transglutaminase activities of purified human (Zedira) or cynomogolus monkey TG2 enzymes (Trenzyme) were measured by incorporation of dansylated lysine K×D (Zedira) into N,N-dimethylated casein (DMC, Sigma). Human or cynomogolus monkey TG2 were diluted in transamidation buffer (25 mM HEPES pH 7.4 containing 250 mM NaCl, 2 mM MgCl2, 5 mM CaCl2, 0.2 mM DTT and 0.05% v/v Pluronic F-127) to 1 nM and 10 nM respectively and mixed with various concentrations of protein-A purified murine, chimeric or humanised TG2 antibodies for 180 min at room temperature in 384-well black microtiter plates (Corning). Reactions were initiated by addition of DMC and K×D to a final concentration of 10 uM and 20 uM respectively and a final reaction volume of 30 ul, and allowed to proceed at RT for 180 min and the increase in fluorescence (RFU) (excitation at 280 nm, emission 550 nm) monitored using a Tecan Safire^2 plate reader. Data were normalised to percentage activity where % activity=(RFU test antibody−RFU low controls)/RFU high controls−RFU low controls)×100, where low controls contained all components except enzyme and high controls contained all components except antibody.
# Antibody dose response curves were plotted using GraphPad prism software and fitted using a 4-parameter logistical model to return IC50 and other statistical parameters. The results are illustrated in FIGS. 29 to 33.
row,Molecule,inhibition of human TG2 transamidation (in words)
1,B1,potent inhibition of TG2 activity in the low nanomolar range
2,B2,potent inhibition of TG2 activity in the low nanomolar range
3,B3,potent inhibition of TG2 activity in the low nanomolar range
4,B4,potent inhibition of TG2 activity in the low nanomolar range

# Biological target: T1, human TG2
# Experiment: Biacore (SPR) affinity, human TG2
# Assay type: binding
# Parameters: purchased Zedira GmbH T002
# Conditions: +Ca^2+ (1 mM CaCl2 running buffer; includes rows without a Ca mark)
# Experimental: (§1) Recombinant human TG2 was obtained from Zedira GmbH (cat. no.: T002). Recombinant cynomolgus monkey TG2 was obtained from Trenzyme. Surface plasmon resonance (SPR) was measured on a Biacore T200 instrument (GE Healthcare). CM5 chips (GE Healthcare cat. no.: BR-1006-68) were coated with monoclonal mouse anti-human IgG1 (Fc) (MAH) antibody (GE Healthcare cat. no.: BR-1008-39) by amine-coupling as described in the manufacturers instructions. HBS-EP+ buffer (0.01 M HEPES, 0.15 M NaCl, 3 mM EDTA, 0.05% v/v Surfactant P20) and HBS-P+ buffer (0.01 M HEPES, 0.15 M NaCl, 0.05% Surfactant P20) were purchased from GE Healthcare as 10× stocks (cat. nos.: BR-1006-69 and BR-1006-71). Calcium Chloride solution was obtained from Sigma Aldrich (cat. no.:21115).
# (§2) The method employed to determine the affinity of the anti-TG2 antibodies involved the capture of the chimeric or humanised antibodies on a MAH coated CM5 chip, followed by the injection of a series of TG2 samples in running buffer. The running buffer was 1×HBS-P+ containing 1 mM CaCl2, or 1×HBS-EP+ for calcium-free experiments. Antibody capture was carried out for a contact time of 120 seconds at a flow rate of 10 μl/min resulting in the capture of approximately 40-80 RU. TG2 was injected over the immobilised antibody at concentrations ranging from 25 nM to 400 nM with a contact time up to 600 seconds at a flow rate of 30 μl/min. Dissociation of TG2 was typically measured for up to 5400 seconds (1.5 hours). Regeneration of the chip was then performed using 3 M MgCl2, for a contact time of 60 seconds at a flow rate of […], followed by a 300 s stabilisation period before the next sample. For each of human and cynomolgus monkey TG2, at least 5 injections at a variety of concentrations were performed in at least two separate experiments.
# (§3) Kinetic data were exported from the Biacore T200 Evaluation Software and analysed using GraphPad Prism, where the association phases and dissociation phases were analysed separately using a one phase association model and one-phase exponential decay model respectively. Association rates (kon) were calculated for each curve individually, and dissociation rates (koff) values from the long dissociation phase data collected. Where koff values were calculated to be <1×10^−5 s^−1, values were set at 1×10^−5 for analysis, as rates slower than this could not be estimated accurately. Values for kon and koff are presented in the tables below as the mean of the individual calculated values for each antibody for each TG2 species from multiple concentrations +/−1 standard deviation. KD values are calculated as mean koff/mean kon.
Molecule,koff,kon [M⁻¹ s⁻¹]
B1,<10^−5 s^−1,240000
B2,<10^−5 s^−1,320000
B3,<10^−5 s^−1,190000
B4,2.4e-05 s⁻¹,200000

# System: Cynomolgus TG2
# Experiment: Biacore (SPR) affinity, cynomolgus TG2
# Assay type: binding, cynomolgus monkey
# Conditions: +Ca^2+ (1 mM CaCl2 running buffer; includes rows without a Ca mark)
# Experimental: as §1, §2, §3
Molecule,koff,kon [M⁻¹ s⁻¹]
B1,3.7e-05 s⁻¹,270000
B2,<10^−5 s^−1,420000
B3,3.4e-05 s⁻¹,140000
B4,1.8e-05 s⁻¹,160000

# Biological target: T1, human TG2
# Experiment: ELISA assay for TG2 binding, human TG2
# Parameters: purchased Zedira GmbH T002
# Conditions: not given
# Experimental: Antibody binding to human and cynomolgus monkey TG2 was determined in an ELISA assay. Clear polystyrene “Maxisorp” 96-well plates (Nunc) were coated with 50 ng purified human or cynomogulus monkey TG2 in 50 μl 0.05 M carbonate-bicarbonate buffer pH 9.6 at 4° C. overnight. Control wells were coated with 50 μl 100 μg/ml bovine serum albumin (BSA). Plates were washed 3× with 300 μl phosphate-buffered saline pH7.4 (PBS) containing 0.1% Tween 20 (PBST) and blocked with 300 μl 3% w/v Marvel skimmed milk in PBS for 1 hour at room temperature. After 3× wash with PBST, 50 μl protein-A purified chimeric or humanised anti-TG2 antibodies or human IgG1 kappa isotope control antibody or CUB7402 (Abcam) were serially diluted 4-fold from a top concentration of 50 nM in PBS, and added to the plate in duplicate. […] After 3× washes with PBST, the plates were developed with 50 μl TMB substrate (Sigma) for 5 min at room temperature before stopping the reaction with 25 μl 0.5M H2SO4 and reading absorbance at 450 nm in a microtiter plate reader (BioTek EL808). Dose response curves were analysed and EC50 values and other statistical parameters determined using a 4-parameter logistical fit of the data (GraphPad Prism).
row,Molecule,ELISA binding to human TG2 (in words)
1,B1,comparable EC50 values
2,B4,comparable EC50 values

# System: WI-38 cells
# Experiment: Scratch wound assay in WI-38 cells
# Assay type: cell-based, human
# Conditions: serum free media; Cytochalasin D 0.1 μM, R281 100 μM, Z DON 10 μM and 100 μM, Cub7402 5 μg/ml
# Experimental: WI-38 cells (normal human lung fibroblasts ATCC cat#CCL-75) were plated in a 96 well Image Lock plate (Essen cat#4379) at 2×10^4/well in αMEM media (Life Technologies cat#32561) with 10% FBS and grown O/N to >97% confluence. Cells were washed 2× with αMEM media without serum and a scratch wound was generated using an Essen Wound Maker and the manufacturers protocol. The media was removed and replaced with 95 μl/well serum free media. Controls and test antibodies were added to the wells. The plate was placed in an Essen Incucyte and the closure of the wound was analysed using the scratch wound protocol.
# Cytochalasin D was used as an assay control at 0.1 μM. R281, a small molecule non-specific transglutaminase inhibitor, was tested at 100 μM. Z DON, a peptide non reversible transglutaminase inhibitor was tested at 10 μM and 100 μM. The commercially available TG2 antibody Cub7402 (ABcam cat#ab2386) was tested at 5 μg/ml. Antibodies of the invention were tested on at least three occasions at various concentrations as indicated. In all experiments controls were Cytochalasin D at 0.1 uM and ZDON at two concentrations to show a dose dependant effect.
row,Molecule,effect on wound closure
1,B2,inhibited wound closure
2,B3,inhibited wound closure
